Assay results as given in patent publication US20190185531A1 (MIT, published 2019).

How the values were obtained:
[1] = target: T1, human Bfl-1 (c-myc-tagged) (human, UniProt Q16548 1-151, limits assumed); assay: competition fluorescence anisotropy against fluoresceinated Bim BH3
T1 construct: c-myc-tagged in the fluorescence polarization and yeast-display assays; also called c-myc-Bfl-1; Myc-tagged Bfl-1; not shown: c-myc tag
T1 sequence (looked up): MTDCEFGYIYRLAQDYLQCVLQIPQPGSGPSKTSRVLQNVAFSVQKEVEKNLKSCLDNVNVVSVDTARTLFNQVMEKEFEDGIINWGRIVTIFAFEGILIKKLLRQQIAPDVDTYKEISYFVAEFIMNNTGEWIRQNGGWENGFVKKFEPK
Experimental: (§1) Fluorescence polarization assays were performed in order to measure the binding abilities of the peptide constructs. […] C-myc-tagged receptors were used for all Bcl-2 homologs. Plates were mixed at room temperature for 3 h. Experiments were done in triplicate. Data were fit, as described for competition fluorescence anisotropy experiments in Foight et al. (Foight, G. W., Ryan, J. A., Gullá, S. V, Letai, A. & Keating, A. E. Designed BH3 Peptides with High Affinity and Specificity for Targeting Mcl-1 in Cells. ACS Chem. Biol. 9, 1962-8 (2014)), to a complete competitive binding model (equation 17 in Roehrl et al., 2004)(Roehrl, M. H. A., Wang, J. Y. & Wagner, G. A General Framework for Development and Data Analysis of Competitive High-Throughput Screens for Small-Molecule Inhibitors of Protein-Protein Interactions by Fluorescence Polarization^{†}. Biochemistry 43, 16056-16066 (2004)) using a Python script.

[2] = target: T2, human Mcl-1 (c-myc-tagged) (human, UniProt Q07820 172-327); assay: assay not named in the sentence (competition fluorescence anisotropy elsewhere)
T2 construct: c-myc-tagged in the fluorescence polarization assay; also called c-myc-Mcl-1; not shown: c-myc tag
T2 sequence (Q07820 172-327 limits assumed): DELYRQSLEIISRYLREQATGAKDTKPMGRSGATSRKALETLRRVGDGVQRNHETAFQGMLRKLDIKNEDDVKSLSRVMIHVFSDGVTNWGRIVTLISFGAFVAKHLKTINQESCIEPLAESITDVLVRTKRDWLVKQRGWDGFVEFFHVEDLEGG

[3] = target: T1, human Bfl-1 (c-myc-tagged); assay: fluorescence anisotropy competition (FIG. 1E)
Experimental: as §1

[4] = target: T1, human Bfl-1 (c-myc-tagged); assay: X-ray crystal structure
Experimental: To analyze the structural interactions between the peptides and Bfl-1, crystals of various complexes were grown and diffraction data collected. […] Crystals were seeded with drops containing parent crystals grown in higher ammonium sulfate (2.2-2.4 M) using a cat whisker. The protein was concentrated to 4 mg/ml in 20 mM Tris, 150 mM NaCl, 1% glycerol, 1 mM DTT, pH 8.0 and mixed with peptide at a 1:1 molar ratio. The hanging drops contained 1.5 μl of complex mixed with 1.5 μl of reservoir solution. Crystals were cryo-protected by transferring into 2.0 M lithium sulfate with 10% glycerol prior to flash freezing. Diffraction data were collected at the Advanced Photon Source at the Argonne National Laboratory, NE-CAT beamline 24ID-C. […] The peptide was built into the difference density from the rigid body refinement and the structure was refined with iterative rounds of refinement and model building using PHENIX and COOT.

Ac-QWVREIAAGLRLAADNVNAQLER-NH2 [FS1]
Ki [1]: 15 nM

Ac-QWVREIAAGLRRAADDVNAQVER-NH2 [FS2]
fold weaker than binding to Bfl-1 [2]: > 100 fold | fold increase in affinity against the chimera with smaller residues at G2, D3, A4 and E4 [3]: 28.6 fold

Ac-QWAREIGAGLRRAADDVNAQVER-NH2 (also called PUMA/FS2 chimeric peptides) [PUMA/FS2 chimeric peptide: PUMA with smaller residues at positions G2, D3, A4 and E4]
binding result [3]: binds

Ac-QWAREIGAQLRRMADDLNAQYER-NH2 (peptide, UniProt Q9BXH1 132-154, looked up, domain: BH3) [Puma BH3 peptide (23 residues)]
binding result [4]: binds

Ac-QWVREIAAQLRRMADDLNAQYER-NH2 (also called PUMA/FS2 chimeric peptides) [PUMA/FS2 chimeric peptide: PUMA with larger residues at positions A2 and E2]
fold increase in affinity against PUMA [3]: 2.3 fold
